From PMC10786891, “Massively parallel profiling of RNA-targeting CRISPR-Cas13d”
Where a chain is given by its changes, count along the chain named. Names and notes keep the numbering of the source.

T1: EsCas13d, nuclease-dead (Eubacterium siraeum, UniProt B0MS50, R295A;H300A;R849A;H854A)
T1 sequence: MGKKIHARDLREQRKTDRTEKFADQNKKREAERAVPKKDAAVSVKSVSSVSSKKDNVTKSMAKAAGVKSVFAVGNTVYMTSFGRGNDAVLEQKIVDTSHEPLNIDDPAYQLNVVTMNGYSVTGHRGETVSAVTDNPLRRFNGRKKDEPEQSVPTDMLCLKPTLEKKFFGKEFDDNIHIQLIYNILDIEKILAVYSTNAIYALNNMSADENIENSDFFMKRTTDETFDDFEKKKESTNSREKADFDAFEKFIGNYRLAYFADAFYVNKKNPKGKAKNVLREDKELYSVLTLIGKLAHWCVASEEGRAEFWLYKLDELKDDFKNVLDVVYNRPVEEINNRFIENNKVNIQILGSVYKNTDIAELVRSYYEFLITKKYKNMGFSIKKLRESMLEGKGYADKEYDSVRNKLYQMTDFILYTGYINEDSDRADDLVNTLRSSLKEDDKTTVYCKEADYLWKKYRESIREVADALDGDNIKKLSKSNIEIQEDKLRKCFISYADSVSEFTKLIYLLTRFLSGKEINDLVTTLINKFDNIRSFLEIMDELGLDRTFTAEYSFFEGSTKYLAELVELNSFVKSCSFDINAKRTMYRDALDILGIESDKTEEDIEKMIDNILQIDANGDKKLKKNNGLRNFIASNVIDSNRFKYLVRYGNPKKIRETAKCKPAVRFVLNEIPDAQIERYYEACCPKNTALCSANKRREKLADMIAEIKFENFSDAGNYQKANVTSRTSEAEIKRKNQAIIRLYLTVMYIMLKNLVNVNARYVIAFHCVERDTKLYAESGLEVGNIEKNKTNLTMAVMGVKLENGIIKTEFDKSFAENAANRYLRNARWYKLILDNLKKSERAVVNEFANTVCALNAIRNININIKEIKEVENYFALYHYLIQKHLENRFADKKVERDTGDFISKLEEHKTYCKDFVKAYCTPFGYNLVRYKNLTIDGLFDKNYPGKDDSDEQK

B1: target 1 A9U,C22U (mixed)
RNA 1: CACCCGUGCAAAAAUGCAGGGGUCUAAAACUGAGCGGAUAACCUCUCUAUGG
RNA 2: GGGAAUGGAUCCACAUCUACGAAUUCGUAUCAUAGAGAGGUUUUCCGCUCACCGAGAUCGGAAGAGCACACGU
B2: target 1 C21A,C22U (mixed)
RNA 1: B1 RNA 1
RNA 2: B1 RNA 2 with C31A, U43A
B3: target 3 insC 3' of 9,insA 3' of 3 (mixed)
RNA 1: CACCCGUGCAAAAUUGCAGGGGUCUAAAACGACCUGAAUAUUUCAGAUCAAA
RNA 2: GGGAAUGGAUCCACAUCUACGAAUUCGUUUUUGAUCUGAAAUACUUCAGGAUCUGCAGAUCGGAAGAGCACACGU
B4: target 3 A5C,U22C (mixed)
RNA 1: B3 RNA 1
RNA 2: GGGAAUGGAUCCACAUCUACGAAUUCGUUCUUGAUCUGAAAUAUUCCGGUCUGCAGAUCGGAAGAGCACACGU
B5: target 3 insA 3' of 22,insU 3' of 5 (mixed)
RNA 1: B3 RNA 1
RNA 2: GGGAAUGGAUCCACAUCUACGAAUUCGUUUAUUGAUCUGAAAUAUUCAUGGUCUGCAGAUCGGAAGAGCACACGU
B6: target 3 G4A,A9G (mixed)
RNA 1: B3 RNA 1
RNA 2: B4 RNA 2 with C30U, A43G, C47A, G48A
B7: target 3 insU 3' of 22,insU 3' of 6 (mixed)
RNA 1: B3 RNA 1
RNA 2: B5 RNA 2 with A31U, A48U, U49A
B8: target 3 G4U,A12U (mixed)
RNA 1: B3 RNA 1
RNA 2: B4 RNA 2 with C30U, A40U, C47A, G48U
B9: target 3 insA 3' of 6,insU 3' of 1 (mixed)
RNA 1: B3 RNA 1
RNA 2: B3 RNA 2 with C44U, U46C, C47A, A51U, U52C, C53U
B10: target 3 A5U,U22C (mixed)
RNA 1: B3 RNA 1
RNA 2: B4 RNA 2 with C47U
B11: target 3 del3,del4 (mixed)
RNA 1: B3 RNA 1
RNA 2: GGGAAUGGAUCCACAUCUACGAAUUCGUUUUUGAUCUGAAAUAUUCAUCUGCAGAUCGGAAGAGCACACGU
B12: target 3 insU 3' of 11,insG 3' of 5 (mixed)
RNA 1: B3 RNA 1
RNA 2: B3 RNA 2 with A43U, C44A, A51G
B13: target 3 insA 3' of 8,insC 3' of 5 (mixed)
RNA 1: B3 RNA 1
RNA 2: B3 RNA 2 with C44U, U45A, G49C, A51G
B14: target 3 insU 3' of 6,insA 3' of 3 (mixed)
RNA 1: B3 RNA 1
RNA 2: B3 RNA 2 with C44U, U46C, C47U
B15: target 3 U2C,G4C (mixed)
RNA 1: B3 RNA 1
RNA 2: B4 RNA 2 with C30U, C47A, G48C, U50C
B16: target 3 C1A,U7C (mixed)
RNA 1: B3 RNA 1
RNA 2: B4 RNA 2 with C30U, U45C, C47A, C51A
B17: target 3 insU 3' of 13,insA 3' of 6 (mixed)
RNA 1: B3 RNA 1
RNA 2: B3 RNA 2 with A40U, U42A, A43U, C44A, G49A, A51G
B18: target 3 insU 3' of 5,insU 3' of 4 (mixed)
RNA 1: B3 RNA 1
RNA 2: B3 RNA 2 with C44U, U46C, C47A, A48U, G50U, A51G
B19: target 3 insC 3' of 7,insU 3' of 3 (mixed)
RNA 1: B3 RNA 1
RNA 2: B3 RNA 2 with C44U, U46C, A51U
B20: target 3 G3U,A12G (mixed)
RNA 1: B3 RNA 1
RNA 2: B4 RNA 2 with C30U, A40G, C47A, G49U
B21: target 3 A5G,U8A (mixed)
RNA 1: B3 RNA 1
RNA 2: B4 RNA 2 with C30U, U44A, C47G
B22: target 3 insA 3' of 22,insU 3' of 3 (mixed)
RNA 1: B3 RNA 1
RNA 2: B5 RNA 2 with U49G, G51U
B23: target 3 G4C,C6A (mixed)
RNA 1: B3 RNA 1
RNA 2: B4 RNA 2 with C30U, C46A, C47A, G48C
B24: target 3 insA 3' of 15,insC 3' of 11 (mixed)
RNA 1: B3 RNA 1
RNA 2: GGGAAUGGAUCCACAUCUACGAAUUCGUUUUUGAUCUAGAAACUAUUCAGGUCUGCAGAUCGGAAGAGCACACGU
B25: target 3 G3U,U8C (mixed)
RNA 1: B3 RNA 1
RNA 2: B4 RNA 2 with C30U, U44C, C47A, G49U
B26: target 3 A5U,A18G (mixed)
RNA 1: B3 RNA 1
RNA 2: B4 RNA 2 with C30U, A34G, C47U
B27: target 3 C6A,U8G (mixed)
RNA 1: B3 RNA 1
RNA 2: B4 RNA 2 with C30U, U44G, C46A, C47A
B28: target 3 G19U,U20A (mixed)
RNA 1: B3 RNA 1
RNA 2: B4 RNA 2 with C30U, U32A, G33U, C47A
B29: target 3 C6G,U8A (mixed)
RNA 1: B3 RNA 1
RNA 2: B4 RNA 2 with C30U, U44A, C46G, C47A
B30: target 3 insU 3' of 5 (mixed)
RNA 1: B3 RNA 1
RNA 2: GGGAAUGGAUCCACAUCUACGAAUUCGUUUUUGAUCUGAAAUAUUCAUGGUCUGCAGAUCGGAAGAGCACACGU
B31: target 3 C1U,U7C (mixed)
RNA 1: B3 RNA 1
RNA 2: B4 RNA 2 with C30U, U45C, C47A, C51U
B32: target 3 insA 3' of 14,insU 3' of 4 (mixed)
RNA 1: B3 RNA 1
RNA 2: B3 RNA 2 with U42A, A43U, C44A, G50U, A51G

Target: T1, EsCas13d, nuclease-dead
Test: crRNA (strand 1, pre-loaded); Mg2+; 40 mM Tris-HCl pH 7.5, 150 mM NaCl, 6 mM MgCl2, 1 mM DTT, 0.1% Tween-20, 0.2 mg/ml BSA; 25 C; 10 min per concentration, then washed
Details: tags: His6-TwinStrep-SUMO cleaved; N-terminal SNAP kept (SNAP-Surface 488); label: 3' end held by stalled T7 RNA polymerase

Row | Binder | Kd
1 | B1 | 0.024 ± 0.004 µM
2 | B2 | 0.045 ± 0.007 µM
3 | B3 | 0.0835 ± 0.014 µM
4 | B4 | 0.084 ± 0.031 µM
5 | B5 | 0.0111 ± 0.00115 µM
6 | B6 | 0.0525 ± 0.007 µM
7 | B7 | 0.0275 ± 0.0037 µM
8 | B8 | 0.052 ± 0.0135 µM
9 | B9 | 0.0319 ± 0.0058 µM
10 | B10 | 0.0705 ± 0.02 µM
11 | B11 | 0.0139 ± 0.0014 µM
12 | B12 | 0.104 ± 0.029 µM
13 | B13 | 0.051 ± 0.005 µM
14 | B14 | 0.0112 ± 0.0013 µM
15 | B15 | 0.0184 ± 0.00275 µM
16 | B16 | 0.1 ± 0.04 µM

Row | Binder | Kd
17 | B17 | 0.099 ± 0.025 µM
18 | B18 | 0.002 ± 0.00023 µM
19 | B19 | 0.0495 ± 0.01 µM
20 | B20 | 0.086 ± 0.015 µM
21 | B21 | 0.0805 ± 0.015 µM
22 | B22 | 0.0232 ± 0.00365 µM
23 | B23 | 0.0266 ± 0.00185 µM
24 | B24 | ~0.09 µM
25 | B25 | 0.103 ± 0.0175 µM
26 | B26 | 0.117 ± 0.025 µM
27 | B27 | 0.065 ± 0.0075 µM
28 | B28 | 0.09 ± 0.027 µM
29 | B29 | 0.0815 ± 0.01 µM
30 | B30 | 0.00655 ± 0.00065 µM
31 | B31 | 0.0585 ± 0.016 µM
32 | B32 | 0.0435 ± 0.0145 µM
